Drawing on US20240288440A1, this text covers limit of detection for one substance.

In experiment [1] the target is chimeric secretory component (CSC) of the polymeric immunoglobulin receptor (rabbit (domain 1) and human (domains 2 to 5)).
The target of experiment [2] is receptor binding domain (RBD) of the SARS COV-2 spike protein (amino acids 332-532) (SARS-COV-2) (UniProt P0DTC2).

Chain of chimeric secretory component (CSC) of the polymeric immunoglobulin receptor (rabbit (domain 1) and human (domains 2 to 5)) (P01833 other isoform, or with tags, fused parts or gaps mutant): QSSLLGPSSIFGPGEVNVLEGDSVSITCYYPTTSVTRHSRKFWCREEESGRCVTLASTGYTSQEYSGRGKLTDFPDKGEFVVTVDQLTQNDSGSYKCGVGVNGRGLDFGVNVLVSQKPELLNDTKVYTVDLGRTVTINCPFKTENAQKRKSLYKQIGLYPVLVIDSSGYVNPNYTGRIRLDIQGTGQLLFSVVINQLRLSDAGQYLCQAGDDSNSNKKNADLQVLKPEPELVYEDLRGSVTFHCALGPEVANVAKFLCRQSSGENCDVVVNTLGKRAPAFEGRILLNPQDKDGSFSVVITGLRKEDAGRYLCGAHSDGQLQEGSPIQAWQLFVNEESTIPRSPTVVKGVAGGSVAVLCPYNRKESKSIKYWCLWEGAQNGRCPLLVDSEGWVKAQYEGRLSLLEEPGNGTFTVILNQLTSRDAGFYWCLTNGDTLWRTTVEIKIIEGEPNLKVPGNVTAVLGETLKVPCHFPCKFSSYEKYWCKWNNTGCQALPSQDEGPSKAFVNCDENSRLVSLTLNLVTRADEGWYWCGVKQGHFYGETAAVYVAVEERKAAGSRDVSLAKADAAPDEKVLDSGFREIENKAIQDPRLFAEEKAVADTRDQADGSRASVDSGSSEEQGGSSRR

On to “CB6-IgG (SARS-COV-2 specific monoclonal antibody CB6, IgG form)”, for which the limit of detection in experiment [1] is over 100 µg/mL; in experiment [2], 5 µg/mL.
